Here are results for eleven molecules from US20250215083A1 (JIANGSU HENGRUI PHARMACEUTICALS, published 2025).

Changes are numbered by the printed parent chain.

One assay addresses human GPRC5D (human, UniProt Q9NZD1 1-345). Briefly: cell-based or functional assay.
The target of another assay is hTSLP (human, UniProt Q969D9 29-159). Briefly: ELISA per WO2021139758 Test Example 4.
The next assay deals with hIL5 (human, UniProt P05113 20-134). The assay is described as follows: ELISA per WO2021139758 Test Example 4.
The target of a further assay is T1, human CCR8 (human, UniProt P51685 1-355).
T1 construct: on CHOK1-human CCR8 cells
Briefly: FACS, CHOK1-human CCR8 cells. The source says:
(§1) To determine whether the GPRC5D/CD3 bispecific antibodies of the present disclosure cross-bind to the GPCRA and GPCRB family members, a flow cytometry assay was used in this test example to measure the capacity of the GPRC5D/CD3 bispecific antibodies to bind to CHOK1-human CCR8 cells expressing CCR8 (the GPCR A family) (constructed with reference to Example 2) and CHOK1-human GIPR cells expressing human GIPR (the GPCR B family) (constructed with reference to Example 2). The specific procedure was as follows: The cells described above were cultured in DMEF/12K culture medium containing 10% FBS, incubated in a 37° C., 5% CO₂ incubator for 2 days, and added to a cell plate at 1×10⁵ cells/well. The plate was centrifuged at 300 g for 5 min and washed once with 1% BSA. The antibodies were serially diluted to 8 concentrations and added to the cell plate at 100 μL/well. The plate was incubated at 4° C. for 1 h and washed once with 1% BSA. […] The plate was washed three times with 1% BSA, PBS was added at 100 μL/well, and plate reading was performed.

The target in the next assay is T2, human GIPR (human, UniProt P48546 22-466).
T2 construct: on CHOK1-human GIPR cells
T2 sequence: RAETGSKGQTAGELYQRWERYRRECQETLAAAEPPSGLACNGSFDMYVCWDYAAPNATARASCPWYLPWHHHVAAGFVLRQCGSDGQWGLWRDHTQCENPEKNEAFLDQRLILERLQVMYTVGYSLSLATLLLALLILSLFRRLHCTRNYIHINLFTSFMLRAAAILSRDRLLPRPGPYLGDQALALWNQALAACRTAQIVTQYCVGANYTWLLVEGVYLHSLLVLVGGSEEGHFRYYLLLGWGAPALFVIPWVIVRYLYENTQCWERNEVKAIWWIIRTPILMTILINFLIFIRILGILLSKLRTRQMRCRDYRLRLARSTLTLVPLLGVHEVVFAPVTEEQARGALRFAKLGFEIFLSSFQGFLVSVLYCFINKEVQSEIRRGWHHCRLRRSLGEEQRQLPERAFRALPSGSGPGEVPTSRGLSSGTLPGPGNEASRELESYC
Briefly: FACS, CHOK1-human GIPR cells.
Source text: as §1

Chain of human GPRC5D (Q9NZD1 whole entry): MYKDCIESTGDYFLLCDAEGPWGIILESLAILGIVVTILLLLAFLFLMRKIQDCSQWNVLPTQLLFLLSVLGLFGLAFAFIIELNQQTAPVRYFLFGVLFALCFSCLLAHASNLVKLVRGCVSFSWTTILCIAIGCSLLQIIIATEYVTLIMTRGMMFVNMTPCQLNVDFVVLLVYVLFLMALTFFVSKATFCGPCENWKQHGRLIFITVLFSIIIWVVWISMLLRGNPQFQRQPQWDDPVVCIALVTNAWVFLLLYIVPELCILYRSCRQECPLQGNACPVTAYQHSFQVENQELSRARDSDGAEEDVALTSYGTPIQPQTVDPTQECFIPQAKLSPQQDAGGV

B1: F4-7 (bispecific antibody)
heavy 1: not shown
light 1: not shown
heavy 2: EVQLVQSGAEVKKPGASVKVSCKASGYSFTGYTMNWVRQAPGKRPEWMGLINPYTGGTRNNQKFKDRVTLTVDKSASTAYMELSSLRSEDTAVYYCTRWGLRLAMDYWGQGTTVTVSSASTKGPSVFPLAPSSKSTSGGTAALGCLVKDYFPEPVTVSWNSGALTSGVHTFPAVLQSSGLYSLSSVVTVPSSSLGTQTYICNVNHKPSNTKVDKKVEPKSCDKTHTCPPCPAPEAAGGPSVFLFPPKPKDTLMISRTPEVTCVVVDVSHEDPEVKFNWYVDGVEVHNAKTKPREEQYNSTYRVVSVLTVLHQDWLNGKEYKCKVSNKALPAPIEKTISKAKGQPREPQVCTLPPSRDELTKNQVSLSCAVKGFYPSDIAVEWESNGQPENNYKTTPPVLDSDGSFFLVSKLTVDKSRWQQGNVFSCSVMHEALHNHYTQKSLSLSPGK
light 2: DIQMTQSPSSVSASVGDRVTITCKASQNVGSNVAWYQQKPGKAPKALIYSASYRYSGVPSRFSGSGSGTDFTLTISSLQPEDFATYYCHQYNSYPPTFGQGTKLEIKRTVAAPSVFIFPPSDEQLKSGTASVVCLLNNFYPREAKVQWKVDNALQSGNSQESVTEQDSKDSTYSLSSTLTLSKADYEKHKVYACEVTHQGLSSPVTKSFNRGEC
As to B1, in the assay with human GPRC5D, the “EC50 ratio (relative to JNJ-64407564), cytotoxic activity against NCI-H929” value amounted to 0.16 and the “Lysis rate %, cytotoxic activity against NCI-H929” value was found to be 68.3%.

B2: HJ-3 (bispecific antibody)
chain 1: not shown
chain 2: DIQMTQSPSSVSASVGDRVTITCRASQDIANYLSWYQQKPGKSPKLLIYGTSNLEVGVPSRFSGSRSGTDFTLTISSLQPEDFATYYCLQDKEFPRTFGGGTKVEIKGGGGSSGAPRFLTRPLAFVVSVGKDATLSSQIVGNPTPQVSWEKDKQPVTAGARFRLAQDGDLYRLKILDLQLSDSGQYVSRARNAIGEAFACLGLQVDAEA
chain 3: EVQLVQSGAEVKKPGSSVKVSCKASGYTFSNYLIEWVRQAPGQGLEWIGVIDPGVGDTNYNENFKGRATLTADKSTSTAYIELSSLRSEDTAVYYCAREDNTGTAFDYWGQGTTVTVSSASTKGPSVFPLAPSSKSTSGGTAALGCLVKDYFPEPVTVSWNSGALTSGVHTFPAVLQSSGLYSLSSVVTVPSSSLGTQTYICNVNHKPSNTKVDKKVEPKSCDKTHTCPPCPAPEAAGGPSVFLFPPKPKDTLMISRTPEVTCVVVDVSHEDPEVKFNWYVDGVEVHNAKTKPREEQYNSTYRVVSVLTVLHQDWLNGKEYKCKVSNKALPAPIEKTISKAKGQPREPQVCTLPPSREEMTKNQVSLSCAVKGFYPSDIAVEWESNGQPENNYKTTPPVLDSDGSFFLVSKLTVDKSRWQQGNVFSCSVMHEALHNHYTQKSLSLSPGKDYKDDDDK
chain 4: SIVMTQTPLSLSVTPGQPASISCKASQSVSSDVTWYLQKPGQSPQLLIYYVSEHYTGVPDRFSGSGYGTDFTLKISRVEAEDVGVYYCQQHHRFPLTFGQGTKLEIKRTVAAPSVFIFPPSDEQLKSGTASVVCLLNNFYPREAKVQWKVDNALQSGNSQESVTEQDSKDSTYSLSSTLTLSKADYEKHKVYACEVTHQGLSSPVTKSFNRGEC
As for B2, the EC50 amounted to 3.23 nM with hTSLP and 17.4 nM with hIL5.

B3: HJ-6 (bispecific antibody)
chain 1: not shown
chain 2: B2 chain 2 with R121C, L123K, F125S, T144F, A160V, I194H
chain 3: EVQLVQSGAEVKKPGSSVKVSCKASGYTFSNYLIEWVRQAPGQGLEWIGVIDPGVGDTNYNENFKGRATLTADKSTSTAYIELSSLRSEDTAVYYCAREDNTGTAFDYWGQGTTVTVSSASTKGPSVFPLAPSSKSTSGGTAALGCLVKDYFPEPVTVSWNSGALTSGVHTFPAVLQSSGLYSLSSVVTVPSSSLGTQTYICNVNHKPSNTKVDKKVEPKSCDKTHTCPPCPAPEAAGGPSVFLFPPKPKDTLMISRTPEVTCVVVDVSHEDPEVKFNWYVDGVEVHNAKTKPREEQYNSTYRVVSVLTVLHQDWLNGKEYKCKVSNKALPAPIEKTISKAKGQPREPQVCTLPPSREEMTKNQVSLSCAVKGFYPSDIAVEWESNGQPENNYKTTPPVLDSDGSFFLVSKLTVDKSRWQQGNVFSCSVMHEALHNHYTQKSLSLSPGK
chain 4: B2 chain 4
For the molecule B3, the concentration giving a half-maximal response (EC50) was found to be 2.88 nM with hTSLP and 37 nM with hIL5.

B4: HJ-9 (bispecific antibody)
chain 1: not shown
chain 2: B2 chain 2 with G108R, G109T, G110V, G111A, R121C, L123K, F125S, T144F, A160V, I194H
chain 3: B3 chain 3
chain 4: B2 chain 4
On to B4, for which the results for the 50% effective concentration (EC50) with hTSLP and with hIL5 were 3.18 nM and 10.9 nM, respectively.

B5: HJ-5 (bispecific antibody)
chain 1: not shown
chain 2: B2 chain 2 with L123K, F125S, T144F, A160V, I194H
chain 3: B3 chain 3
chain 4: B2 chain 4
Consider B5, for which the EC50 amounted to 2.64 nM with hTSLP and 16 nM with hIL5.

B6: HJ-11 (bispecific antibody)
chain 1: not shown
chain 2: DIQMTQSPSSVSASVGDRVTITCRASQDIANYLSWYQQKPGKSPKLLIYGTSNLEVGVPSRFSGSRSGTDFTLTISSLQPEDFATYYCLQDKEFPRTFGGGTKVEIKRTVASSGCPRFLTRPKASVVSVGKDATLSCQIVGNPFPQVSWEKDKQPVTAGVRFRLAQDGDLYRLKILDLQLSDSGQYVCRARNAHGEAFACLGLQVDAEA
chain 3: B3 chain 3
chain 4: B2 chain 4
As to B6, the EC50 was 3 nM with hTSLP and 9.46 nM with hIL5.

B7: HJ-7 (bispecific antibody)
chain 1: not shown
chain 2: B6 chain 2 with R108G, T109G, V110G, A111G, C115A
chain 3: B3 chain 3
chain 4: B2 chain 4
With B7, the values for the concentration giving a half-maximal response (EC50) with hTSLP and with hIL5 were 2.18 nM and 17.7 nM, respectively.

B8: HJ-10 (bispecific antibody)
chain 1: not shown
chain 2: B6 chain 2 with C115A
chain 3: B3 chain 3
chain 4: B2 chain 4
As for B8, the EC50 was 3.17 nM in the assay with hTSLP and 20.8 nM in the assay with hIL5.

B9: HJ-8 (bispecific antibody)
chain 1: not shown
chain 2: B6 chain 2 with C115A, C137S, C188S
chain 3: B3 chain 3
chain 4: B2 chain 4
For the molecule B9, the EC50 with hTSLP is 3.33 nM; with hIL5, 18.7 nM.

B10: F4-6 (bispecific antibody)
heavy 1: not shown
light 1: not shown
heavy 2: EVQLVQSGAEVKKPGASVKVSCKVSGYTFTDYPIHWMRQAPGQGLEWMGYVFPRDGSTKYNEKFRVRVTWTADKSTSTVYMELSSLRSEDTAVYYCSRELTAYWGQGTTVTVSSASTKGPSVFPLAPSSKSTSGGTAALGCLVKDYFPEPVTVSWNSGALTSGVHTFPAVLQSSGLYSLSSVVTVPSSSLGTQTYICNVNHKPSNTKVDKKVEPKSCDKTHTCPPCPAPEAAGGPSVFLFPPKPKDTLMISRTPEVTCVVVDVSHEDPEVKFNWYVDGVEVHNAKTKPREEQYNSTYRVVSVLTVLHQDWLNGKEYKCKVSNKALPAPIEKTISKAKGQPREPQVCTLPPSRDELTKNQVSLSCAVKGFYPSDIAVEWESNGQPENNYKTTPPVLDSDGSFFLVSKLTVDKSRWQQGNVFSCSVMHEALHNHYTQKSLSLSPGK
light 2: DVVLTQSPLSLPVTLGQPASISCKSSQSLLHSSGKTYLNWLLQRPGQSPRRLIYLVSKLDSGVPDRFSGSGSGTDFTLKISRVEAEDVGVYYCAQGTHFPRTFGGGTKVEIKRTVAAPSVFIFPPSDEQLKSGTASVVCLLNNFYPREAKVQWKVDNALQSGNSQESVTEQDSKDSTYSLSSTLTLSKADYEKHKVYACEVTHQGLSSPVTKSFNRGEC
notes: formula 4
On to B10, for which the binding result with human CCR8 and with human GIPR was “no binding” each time.

B11: F2-1 (bispecific antibody)
heavy 1: not shown
light 1: DVVMTQTPLSLSVTPGQPASISCRSSQSLVHSQGNTYLYWYLQKPGQSPKLLIYKVSNRFSGVPDRFSGSGSGTDFTLKISRVEAEDVGVYYCSQSTHVPPLTFGQGTKLEIKRTVAAPSVFIFPPSDEQLKSGTASVVCLLNNFYPREAKVQWKVDNALQSGNSQESVTEQDSKDSTYSLSSTLTLSKADYEKHKVYACEVTHQGLSSPVTKSFNRGEC
heavy 2: not shown
light 2: not shown
notes: formula 2
B11: the binding result in the assay with human CCR8 and in the assay with human GIPR was “no binding” in each case.
